Source: patent US20210230570
Where a chain is given by its changes, count along the chain named. Numbers in names are those of the source.

Columns and labels:
[1] = molecular target: Factor X (FX), substrate zymogen, P00742
[2] = molecular target: antithrombin III (plasma purified human AT-III), in complex with unfractionated heparin
[3] = molecular target: plasma purified human antithrombin III (AT-III) in complex with unfractionated heparin (AT-III/UFH)
[4] = molecular target: plasma purified human AT-III (antithrombin III), in complex with full-length unfractionated heparin (AT-III/UFH)
[5] = molecular target: plasma purified human AT-III (Molecular Innovations)
[6] = molecular target: Antithrombin III (plasma purified human AT-III, Molecular Innovations), as AT-III/UFH complex

Chain of Factor X, P00742 (P00742 whole entry, looked up): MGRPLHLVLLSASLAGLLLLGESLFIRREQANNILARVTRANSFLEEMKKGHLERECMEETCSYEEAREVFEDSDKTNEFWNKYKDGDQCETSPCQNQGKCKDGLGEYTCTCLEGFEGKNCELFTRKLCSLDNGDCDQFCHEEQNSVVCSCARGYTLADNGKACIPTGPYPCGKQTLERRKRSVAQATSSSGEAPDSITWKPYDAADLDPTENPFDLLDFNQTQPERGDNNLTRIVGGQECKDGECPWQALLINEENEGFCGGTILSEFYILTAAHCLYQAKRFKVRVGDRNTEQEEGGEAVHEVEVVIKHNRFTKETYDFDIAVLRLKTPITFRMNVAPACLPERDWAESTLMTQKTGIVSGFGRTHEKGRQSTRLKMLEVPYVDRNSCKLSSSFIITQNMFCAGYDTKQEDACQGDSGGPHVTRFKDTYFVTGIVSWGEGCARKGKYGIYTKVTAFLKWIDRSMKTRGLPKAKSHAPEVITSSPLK
Chain of Factor X (FX), substrate zymogen, P00742 (P00742 whole entry, looked up): as above
Chain of Factor X (FX), P00742 (P00742 whole entry, looked up): as above

B1: FIXa-R318Y/R338E/R403E/E410N (protein)
chain 1: YNSGKLEEFVQGNLERECMEEKCSFEEAREVFENTERTTEFWKQYVDGDQCESNPCLNGGSCKDDINSYECWCPFGFEGKNCELDVTCNIKNGRCEQFCKNSADNKVVCSCTEGYRLAENQKSCEPAVPFPCGRVSVSQTSKLTR
chain 2: VVGGEDAKPGQFPWQVVLNGKVDAFCGGSIVNEKWIVTAAHCVETGVKITVVAGEHNIEETEHTEQKRNVIRIIPHHNYNAAINKYNHDIALLELDEPLVLNSYVTPICIADKEYTNIFLKFGSGYVSGWGRVFHKGYSALVLQYLRVPLVDRATCLESTKFTIYNNMFCAGFHEGGRDSCQGDSGGPHVTEVEGTSFLTGIISWGEECAMKGKYGIYTKVSEYVNWIKNKTKLT
B1 was tested, and the kcat/KM (M^-1s^-1), FX activation by FIXa in the Xase complex (Factor X (FX), P00742) was 1.5e+08 M⁻¹ s⁻¹, the “catalytic activity (kcat/KM) for activation of FX in the Xase complex (FVIIIa, PC/PS vesicles, Ca2+), fluorogenic FXa read-out” value (“catalytic activity (kcat/KM)” below) [1] was “displayed some of the greatest increases in catalytic activity” and the KM (Catalytic activity of FIXa variants) (Factor X, P00742) was 0.0455 µM. For the same protein, the K0.5 [2] was 5.88 µM.

B2: FIXa R318Y/R338E/R403E/E410N (mature FIX numbering) (protein)
chain 1: B1 chain 1
chain 2: B1 chain 2
B2 was tested, and the K0.5 [3] was 5.88 µM.

B3: FIXa A103N/N105S/Y155F/R318Y/R338E/R403E/E410N (mature FIX numbering) (protein)
chain 1: B1 chain 1 with A103N, N105S
chain 2: B1 chain 2
With B3 the K0.5 [3] was over 10 µM.

B4: FIXa-K228N/K247N/N249S (protein)
chain 1: B1 chain 1
chain 2: B1 chain 2 with K48N, K67N, N69S, Y138R, E158R, E223R, N230E
With B4 the “catalytic activity (kcat/KM)” value [1] was “demonstrated close to wild-type activity” and the K0.5-mut/K0.5-wt (against Catalyst Biosciences WT FIXa) [4] was 4.4.

B5: FIXa D104N/K106S/Y155F/R318Y/R338E/R403E/E410N (mature FIX numbering) (protein)
chain 1: B1 chain 1 with D104N, K106S
chain 2: B1 chain 2
In the case of B5, the K0.5 [3] is reported as over 10 µM.

B6: FIXa-R318Y/R338E/E410N (protein)
chain 1: B1 chain 1
chain 2: B1 chain 2 with E223R
With B6 the kcat/KM (M^-1s^-1), FX activation by FIXa in the Xase complex (Factor X (FX), P00742) was 3.4e+08 M⁻¹ s⁻¹, the kcat/KM for FX activation (Xase assay with FVIIIa, PC/PS vesicles, Ca2+) (Factor X (FX), P00742) was 3.4e+08 M⁻¹ s⁻¹ and the “catalytic activity (kcat/KM)” value [1] was “displayed some of the greatest increases in catalytic activity”. For the same protein, the KM (Catalytic activity of FIXa variants) (Factor X, P00742) was 0.0142 µM, the K0.5 [2] was 3.46 µM and the K0.5-mut/K0.5-wt [2] was 179.

B7: FIXa Y155F/R318Y/R338E/R403E/E410N (mature FIX numbering) (protein)
chain 1: B1 chain 1
chain 2: B1 chain 2
B7 was tested, and the K0.5 [3] was over 10 µM.

B8: FIXa-K293A/R338A/R403A (protein)
chain 1: B1 chain 1
chain 2: B1 chain 2 with K113A, Y138R, E158A, E223A, N230E
With B8 the kcat (FX activation in the Xase complex) (Factor X (FX), P00742) was 1.6 s⁻¹, the kcat/KM for FX activation (Xase assay with FVIIIa, PC/PS vesicles, Ca2+) (Factor X (FX), P00742) was 2.5e+07 M⁻¹ s⁻¹ and the “% of WT (kcat/KM)” value (Factor X, P00742) was 53%. It also gave a kcat/KM (Factor X, P00742) of 2.5e+07 M⁻¹ s⁻¹, a K0.5 [2] of over 0.999 µM and a K0.5-mut/K0.5-wt [2] of over 51.7. For the same protein, the K0.5-mut/K0.5-wt [5] was 16.9.

B9: FIXa-K247N/N249S/R318Y/R338E/T343R/R403E/E410N (protein)
chain 1: B1 chain 1
chain 2: B1 chain 2 with K67N, N69S, T163R
With B9 the KM (Factor X (FX), P00742) was 0.0292 µM, the kcat of FX activation by FIXa in the Xase complex (FVIIIa, PC/PS vesicles, Ca2+) (Factor X (FX), P00742) was 10.6 s⁻¹ and the “catalytic activity (kcat/KM)” value [1] was “improved activity when combined with other mutations”.

B10: FIXa A103N/N105S/R318Y/R338E/R403E/E410N (mature FIX numbering) (protein)
chain 1: B1 chain 1 with A103N, N105S
chain 2: B1 chain 2
B10 showed a K0.5 [3] of 9.19 µM.

B11: FIXa D104N/K106S/R318Y/R338E/R403E/E410N (mature FIX numbering) (protein)
chain 1: B1 chain 1 with D104N, K106S
chain 2: B1 chain 2
B11 gave a K0.5 [3] of over 10 µM.

B12: FIXa-K293E/R338E/R403E (protein)
chain 1: B1 chain 1
chain 2: B1 chain 2 with K113E, Y138R, N230E
For B12, the kcat (FX activation in the Xase complex) (Factor X (FX), P00742) was 0.8 s⁻¹, the kcat/KM for FX activation (Xase assay with FVIIIa, PC/PS vesicles, Ca2+) (Factor X (FX), P00742) was 1.7e+07 M⁻¹ s⁻¹ and the “% of WT (kcat/KM)” value (Factor X, P00742) was 36%. It also gave a KM (Catalytic activity of FIXa variants) (Factor X, P00742) of 0.05 µM, a kcat/KM (Factor X, P00742) of 1.7e+07 M⁻¹ s⁻¹ and a K0.5 [2] of over 0.999 µM. For the same protein, the K0.5-mut/K0.5-wt [2] was over 51.7 and the K0.5-mut/K0.5-wt [5] was 14.2.

B13: FIXa-R318Y/R338E/T343R/R403E/E410N (protein)
chain 1: B1 chain 1
chain 2: B1 chain 2 with T163R
B13 was tested, and the K0.5-mut/K0.5-wt (against Catalyst Biosciences WT FIXa) [6] was over 517, the KM (Factor X (FX), P00742) was 0.0247 µM and the KM (nM); Catalytic activity of FIXa variants (KM) (Factor X (FX), P00742) was 22.3 nM. The kcat of FX activation by FIXa in the Xase complex (FVIIIa, PC/PS vesicles, Ca2+) (Factor X (FX), P00742) was 9.7 s⁻¹, the kcat/KM (Factor X (FX), P00742) was 5.4e+08 M⁻¹ s⁻¹ and the “catalytic activity (kcat/KM)” value [1] was “displayed some of the greatest increases in catalytic activity”.

B14: FIXa D203N/F205T/R318Y/E410N (mature FIX numbering) (protein)
chain 1: B1 chain 1
chain 2: B1 chain 2 with D23N, F25T, E158R, E223R
With B14 the K0.5 [3] was 1.28 µM.

B15: FIXa-K247N/N249S/R338E/T343R/R403E (protein)
chain 1: B1 chain 1
chain 2: B1 chain 2 with K67N, N69S, Y138R, T163R, N230E
In the case of B15, the kcat (Factor X (FX), P00742) is reported as 14.6 s⁻¹, the kcat/KM (Factor X (FX), P00742) is reported as 5.6e+08 M⁻¹ s⁻¹ and the “catalytic activity (kcat/KM)” value [1] is reported as “improved activity when combined with other mutations”.
